Source: patent US20130101592A1 (LYKERA BIOMED, published 2013)

Columns and labels:
[1] = target: T1, recombinant human S100A1 (Abnova) (human, UniProt P23297 1-94); assay: ELISA on purified protein; legend: - no reaction
T1 sequence (looked up): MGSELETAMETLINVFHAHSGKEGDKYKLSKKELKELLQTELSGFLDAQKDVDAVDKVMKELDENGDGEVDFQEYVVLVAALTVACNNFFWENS

[2] = target: recombinant human S100A6 (Abnova) (human, UniProt P06703 1-90); assay: ELISA on purified protein; legend: - no reaction
[3] = target: recombinant human S100A2 (Abnova) (human, UniProt P29034 1-98); assay: ELISA on purified protein; legend: - no reaction
Chain of recombinant human S100A2 (Abnova) (P29034 whole entry, one chain of several): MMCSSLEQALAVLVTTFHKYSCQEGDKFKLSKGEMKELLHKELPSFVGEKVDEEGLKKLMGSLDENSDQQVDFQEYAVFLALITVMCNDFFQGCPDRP

[4] = target: T2, recombinant human S100A7 (human, UniProt P31151 1-101); assay: ELISA on purified protein; legend: - no reaction
T2 sequence (looked up): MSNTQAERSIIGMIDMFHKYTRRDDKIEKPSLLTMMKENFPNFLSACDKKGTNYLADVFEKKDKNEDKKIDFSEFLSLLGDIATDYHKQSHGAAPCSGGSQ

[5] = target: T3, recombinant murine S100A4 (murine, UniProt P07091 1-101); assay: ELISA on purified protein; legend: ++++ positive reaction
T3 construct: also called Mouse S100A4
T3 sequence (P07091 whole entry, one chain of several): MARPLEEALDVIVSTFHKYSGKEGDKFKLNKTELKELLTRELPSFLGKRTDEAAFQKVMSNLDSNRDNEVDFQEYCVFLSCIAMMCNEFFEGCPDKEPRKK

B1: monoclonal antibody 5C3 (hybridoma 5C3-1B8-1F4, ECACC 10022401) (antibody, IgG1, V domains shown)
VH: EAQLQQSGAELVKPGASVKLSCTASGFNIQETYMHWVKQRPEQGLEWIGRIDPANGNTKDDPKFQGKASITVDTSSNTAYLQLSSLTSEDTAVYYCASSYAMDYWGQGTSVTVSS
VL: DVLMTQTPLSLPVSLGDQASISCRSSQSIVHSNGNTYLEWYLQKTGQSPELLIYKVSNRLSGVPDRFSGSGSGTDFTLKISRVEAEDLGVYYCFQGSHVPFTFGSGTKLEIK
notes: constant regions are not; also called monoclonal mouse anti-human S100A4 5C3
- binding result [1]: no binding
- binding result [2]: no binding
- binding result [3]: no binding
- binding result [4]: no binding
- binding result [5]: binds
